Laboratory results: patent JP2016028048A (dated 2016)
Numbering of substitutions follows the chain as printed.

B1: TP-3A4 (Fab, V domains shown)
VH: QVQLVESGGGLVQPGGSLRLSCAASGFTFSSYWMHWVRQAPGKGLEWVSSISYDSSNTYYADSVKGRFTISRDNSKNTLYLQMNSLRAEDTAVYYCARYGGMDYWGQGTLVTVSS
VL: DIELTQPPSVSVAPGQTARISCSGDNLRDKYASWYQQKPGQAPVLVIYSKSERPSGIPERFSGSNSGNTATLTISGTQAEDEADYYCSSYTLNPNLNYVFGGGTKLTVLG
notes: Human Fab (HuCal Gold), made in E. coli TG1
B2: TP-2G9 (Fab, V domains shown)
VH: QVQLVESGGGLVQPGGSLRLSCAASGFTFNSYAMTWVRQAPGKGLEWVSAIKSDGSNTYYADSVKGRFTISRDNSKNTLYLQMNSLRAEDTAVYYCARNDSGWFDVWGQGTLVTVSS
VL: DIALTQPASVSGSPGQSITISCTGTSSDLGGFNTVSWYQQHPGKAPKLMIYSVSSRPSGVSNRFSGSKSGNTASLTISGLQAEDEADYYCQSYDLNNLVFGGGTKLTVLG
notes: as for B1
B3: TP-3C1 (Fab, V domains shown)
VH: QVQLVESGGGLVQPGGSLRLSCAASGFTFSSYSMHWVRQAPGKGLEWVSGISYSSSFTYYADSVKGRFTISRDNSKNTLYLQMNSLRAEDTAVYYCARALGGGVDYWGQGTLVTVSS
VL: B2 VL
notes: Human Fab (HuCal Gold), made in E. coli TG1; VL is the same entry as TP-2G9, VH the same entry as TP-3F2 (so in the source)
B4: TP-2G2 (Fab, V domains shown)
VH: QVQLVESGGGLVQPGGSLRLSCAASGFTFSSYAMNWVRQAPGKGLEWVSAILSDGSSTSYADSVKGRFTISRDNSKNTLYLQMNSLRAEDTAVYYCARYPDWGWYTDVWGQGTLVTVSS
VL: DIELTQPPSVSVAPGQTARISCSGDNIRKFYVHWYQQKPGQAPVLVIYGTNKRPSGIPERFSGSNSGNTATLTISGTQAEDEADYYCQSYDSKFNTVFGGGTKLTVLG
notes: as for B1
B5: TP-2F9 (Fab, V domains shown)
VH: QVQLVESGGGLVQPGGSLRLSCAASGFTFYKYAMHWVRQAPGKGLEWVSGIQYDGSYTYYADSVKGRFTISRDNSKNTLYLQMNSLRAEDTAVYYCARYYCKCVDLWGQGTLVTVSS
VL: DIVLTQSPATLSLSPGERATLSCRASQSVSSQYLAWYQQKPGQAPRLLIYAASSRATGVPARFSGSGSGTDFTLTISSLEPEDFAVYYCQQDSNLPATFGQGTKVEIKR
notes: as for B1
B6: TP-2A6 (Fab, V domains shown)
VH: QVQLVESGGGLVQPGGSLRLSCAASGFTFSRYAMSWVRQAPGKGLEWVSSIISSSSETYYADSVKGRFTISRDNSKNTLYLQMNSLRAEDTAVYYCARLMGYGHYYPFDYWGQGTLVTVSS
VL: DIELTQPPSVSVAPGQTARISCSGDKIGSKYVYWYQQKPGQAPVLVIYDSNRPSGIPERFSGSNSGNTATLTISGTQAEDEADYYCASYDSIYSYWVFGGGTKLTVLG
notes: as for B1
B7: TP-3A3 (Fab, V domains shown)
VH: QVQLVESGGGLVQPGGSLRLSCAASGFTFNNNAISWVRQAPGKGLEWVSAINSSSSSTSYADSVKGRFTISRDNSKNTLYLQMNSLRAEDTAVYYCARGHHRGHSWASFIDYWGQGTLVTVSS
VL: DIELTQPPSVSVAPGQTARISCSGDNIGSKYVHWYQQKPGQAPVVVIYEDSDRPSGIPERFSGSNSGNTATLTISGTQAEDEADYYCQSWDKSEGYVFGGGTKLTVLG
notes: as for B1
B8: TP-2E5 (Fab, V domains shown)
VH: QVQLQQSGPGLVKPSQTLSLTCAISGDSVSSNSAAWSWIRQSPGRGLEWLGMIFYRSKWNNDYAVSVKSRITINPDTSKNQFSLQLNSVTPEDTAVYYCARVNANGYYAYVDLWGQGTLVTVSS
VL: DIQMTQSPSSLSASVGDRVTITCRASQPIYNSLSWYQQKPGKAPKLLIYGVSNLQSGVPSRFSGSGSGTDFTLTISSLQPEDFAVYYCLQVDNLPITFGQGTKVEIKR
notes: as for B1
B9: TP-2D7 (Fab, V domains shown)
VH: QVQLQQSGPGLVKPSQTLSLTCAISGDSVSSNSAAWGWIRQSPGRGLEWLGLIYYRSKWYNDYAVSVKSRITINPDTSKNQFSLQLNSVTPEDTAVYYCARFGDTNRNGTDVWGQGTLVTVSS
VL: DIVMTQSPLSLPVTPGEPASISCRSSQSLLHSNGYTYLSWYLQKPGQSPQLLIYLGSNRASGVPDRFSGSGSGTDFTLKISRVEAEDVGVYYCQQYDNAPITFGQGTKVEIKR
notes: as for B1
B10: TP-3C3 (Fab, V domains shown)
VH: B9 VH with L52V, F102A, G103R, D104A, T105K, N106K, R107S, N108G, T110F, V112Y
VL: DIQMTQSPSSLSASVGDRVTITCRASQSINPYLNWYQQKPGKAPKLLIYAASNLQSGVPSRFSGSGSGTDFTLTISSLQPEDFAVYYCQQLDNRSITFGQGTKVEIKR
notes: as for B1
B11: TP-3A2 (Fab, V domains shown)
VH: QVQLVESGGGLVQPGGSLRLSCAASGFTFSNYYLSWVRQAPGKGLEWVSGISYNGSSTNYADSVKGRFTISRDNSKNTLYLQMNSLRAEDTAVYYCARMWRYSLGADSWGQGTLVTVSS
VL: DIELTQPPSVSVAPGQTARISCSGDNIGSRYAYWYQQKPGQAPVVVIYDDSDRPSGIPERFSGSNSGNTATLTISGTQAEDEADYYCAAYTFYARTVFGGGTKLTVLG
notes: as for B1
B12: TP-2A5.1 (Fab, V domains shown)
VH: QVQLVESGGGLVQPGGSLRLSCAASGFTFSSYGSWVRQAPGKGLEWVSVISGSGSSTYYADSVKGRFTISRDNSKNTLYLQMNSLRAEDTAVYYCARVNISTHFDVWGQGTLVTVSS
VL: DIELTQPPSVSVAPGQTARISCSGDNIPEKYVHWYQQKPGQAPVLVIHGDNNRPSGIPERFSGSNSGNTATLTISGTQAEDEADYYCQSFDAGSYFVFGGGTKLTVLG
notes: as for B1
B13: TP-2A2 (Fab, V domains shown)
VH: QVQLVESGGGLVQPGGSLRLSCAASGFTFSNNAMNWVRQAPGKGLEWVSTISYDGSNTYYADSVKGRFTISRDNSKNTLYLQMNSLRAEDTAVYYCARQAGGWTYSYTDVWGQGTLVTVSS
VL: DIELTQPPSVSVAPGQTARISCSGDNIRTYYVHWYQQKPGQAPVVVIYGDSKRPSGIPERFSGSNSGNTATLTISGTQAEDEADYYCQSYDSEADSEVFGGGTKLTVLG
notes: as for B1
B14: TP-2G7 (Fab, V domains shown)
VH: QVQLVESGGGLVQPGGSLRLSCAASGFTFNSYAMSWVRQAPGKGLEWVSNISSNSSNTYYADSVKGRFTISRDNSKNTLYLQMNSLRAEDTAVYYCARKGGGEHGFFPSDIWGQGTLVTVSS
VL: B13 VL with I27L, R28G, V45L, S51N, K52N, S89T, E93N, A94N, D95E, E97I
notes: as for B1
B15: TP-2G4 (Fab, V domains shown)
VH: QVQLVESGGGLVQPGGSLRLSCAASGFTFSSYAMTWVRQAPGKGLEWVSNISYSGSNTYYADSVKGRFTISRDNSKNTLYLQMNSLRAEDTAVYYCARVGYYYGFDYWGQGTLVTVSS
VL: DIELTQPPSVSVAPGQTARISCSGDALRKHYVYWYQQKPGQAPVLVIYGDNNRPSGIPERFSGSNSGNTATLTISGTQAEDEADYYCQSYDKPYPILVFGGGTKLTVLG
notes: as for B1
B16: TP-3B3 (Fab, V domains shown)
VH: B15 VH with A33G, T35H, S54M, Y59N, V99G, G100L, Y101F, Y102P, Y103G, G104Y
VL: DIELTQPASVSVAPGQTARISCSGDNLRSKYAHWYQQKPGQAPVLVIYGDNNRPSGIPERFSGSNSGNTATLTISGTQAEDEADYYCSAYAMGSSPVFGGGTKLTVLG
notes: as for B1
B17: TP-2B9 (Fab, V domains shown)
VH: QVQLQQSGPGLVKPSQTLSLTCAISGDSVSSNSAAWGWIRQSPGRGLEWLGMIYHRSKWYNDYAVSVKSRITINPDTSKNQFSLQLNSVTPEDTAVYYCARYSSIGHMDYWGQGTLVTVSS
VL: DIQMTQSPSSLSASVGDRVTITCRASQSIRSYLAWYQQKPGKAPKLLIYKASNLQSGVPSRFSGSGSGTDFTLTISSLQPEDFAVYYCHQYSDSPVTFGQGTKVEIKR
notes: as for B1
B18: TP-2E3 (Fab, V domains shown)
VH: B17 VH with H55Y, Y102V, S103N, S104Q, I105Y, G106T, H107S, M108S
VL: DIALTQPASVSGSPGQSITISCTGTSSDIGGYNYVSWYQQHPGKAPKLMIYGVNYRPSGVSNRFSGSKSGNTASLTISGLQAEDEADYYCSSADKFTMSIVFGGGTKLTVLG
notes: as for B1
B19: TP-2H10 (Fab, V domains shown)
VH: B17 VH with S33G, M52F, H55R, D62S, Y102Q, S103D, S104G, I105M, H107G, Y110S
VL: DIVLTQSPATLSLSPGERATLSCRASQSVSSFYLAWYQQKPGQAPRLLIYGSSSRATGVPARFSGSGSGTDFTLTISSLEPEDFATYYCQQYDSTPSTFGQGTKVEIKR
notes: as for B1
B20: TP-3C2 (Fab, V domains shown)
VH: QVQLQQSGPGLVKPSQTLSLTCAISGDSVSSSSAAWSWIRQSPGRGLEWLGMIYYRSKWYNHYAVSVKSRITINPDTSKNQFSLQLNSVTPEDTAVYYCARGGSGVMDVWGQGTLVTVSS
VL: B17 VL with R30T, S31N, A34N, K50D, A51V, H89Q, D93G, S94Y, V96L
notes: as for B1
B21: TP-2G5 (Fab, V domains shown)
VH: B17 VH with G37S, M52F, H55Y, Y102H, S103N, S104P, I105D, G106L, H107G, M108F
VL: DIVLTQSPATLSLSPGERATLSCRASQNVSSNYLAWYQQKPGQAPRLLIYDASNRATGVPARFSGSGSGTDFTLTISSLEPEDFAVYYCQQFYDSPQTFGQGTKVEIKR
notes: as for B1
B22: TP-2C1 (Fab, V domains shown)
VH: QVQLVESGGGLVQPGGSLRLSCAASGFTFSPYVMSWVRQAPGKGLEWVSSISSSSSNTYYADSVKGRFTISRDNSKNTLYLQMNSLRAEDTAVYYCARGDSYMYDVWGQGTLVTVSS
VL: DIELTQPPSVSVAPGQTARISCSGDSIGSYYAHWYQQKPGQAPVLVIYYDSKRPSGIPERFSGSNSGNTATLTISGTQAEDEADYYCQAYTGQSISRVFGGGTKLTVLG
notes: as for B1

These binders were tested against T1, ヒト組織因子経路インヒビター (human TFPI) (human, UniProt P10646 29-304, limits assumed) (assay: ELISA, Fab in bacterial lysate on human TFPI-coated plate).
T1 construct: Coated on Maxisorp plates (ELISA) or amine-coupled to a CM5 chip (Biacore); also called ヒトTFPI; hTFPI
T1 sequence (looked up): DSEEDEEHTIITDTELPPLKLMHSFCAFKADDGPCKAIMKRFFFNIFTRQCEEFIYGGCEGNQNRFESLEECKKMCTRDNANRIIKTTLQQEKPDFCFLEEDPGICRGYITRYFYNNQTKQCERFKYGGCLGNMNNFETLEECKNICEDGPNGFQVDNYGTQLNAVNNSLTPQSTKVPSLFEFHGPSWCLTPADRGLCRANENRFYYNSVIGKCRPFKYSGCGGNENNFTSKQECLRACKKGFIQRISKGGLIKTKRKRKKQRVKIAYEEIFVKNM

Binding result, binds:
B1
B2
B3
B4
B5
B6
B7
B8
B9
B10
B11
B12
B13
B14
B15
B16
B17
B18
B19
B20
B21
B22
